Square brackets hold non-standard residues; d marks the D form. Ends that are not written are not given here. pT = C[C@@H](OP(=O)(O)O)[C@H](N)C(=O)O
B1: borealin^10-109 (domain or fragment, human, UniProt Q53HL2 10-109, looked up)
chain: VAKTNSLRRRKLASFLKDFDREVEIRIKQIESDRQNLLKEVDNLYNIEILRLPKALREMNWLDYFALGGNKQALEEAATADLDITEINKLTAEAIQTPLK
notes: borealin, human, residues 10-109; Subunit in the rows of two; source: E. coli BL21-CodonPlus (DE3)-RIL, co-expressed with survivin (pETDuet-1), purified within the complex

Columns and labels:
[1] = molecular target: T1, survivin (full-length, recombinant, as subunit of the CPI complexes) (human, UniProt O15392 1-142); test: SEC-MALS; samples at 1 mg/ml on Superose 6 10/300 GL, room temperature; 100 mM NaCl, 20 mM Tris-HCl pH 8.0, 1 mM DTT, 10% glycerol; conditions: both partners purified
T1 construct: survivin, human, full length; Never handled alone; stands for the subunit in the rows of two; source: E. coli BL21-CodonPlus (DE3)-RIL, co-expressed with borealin (pETDuet-1), purified within the complex
T1 sequence (O15392 whole entry, one chain of several): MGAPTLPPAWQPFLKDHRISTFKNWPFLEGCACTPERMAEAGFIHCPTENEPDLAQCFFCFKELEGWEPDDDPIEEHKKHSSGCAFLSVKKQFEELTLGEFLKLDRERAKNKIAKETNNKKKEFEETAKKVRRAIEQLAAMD

[2] = molecular target: T2, CPI80^RRKKRR (CPI80 with the INCENP RRKKRR-motif replaced with alanine residues) (human, UniProt O15392 1-142; Q9NQS7 1-80; Q53HL2 10-109, RRKKRR to hexa-alanine); test: ITC; 400 µM peptide injected into 50 µM protein; 100 mM NaCl, 20 mM Tris-HCl pH 7.2, 1 mM DTT; 25°C; 1:1 binding model; conditions: both partners purified
T2 construct: survivin, human; INCENP, human, residues 1-80 with RRKKRR to hexa-alanine; borealin, human, residues 10-109 as in CPI80; not restated for this mutant; also called CPI80^RRKKRR mutant; source: E. coli BL21-CodonPlus (DE3)-RIL, purified (Glutathione Sepharose, SEC); not shown: His6, N-terminal, cleaved; GST, N-terminal, cleaved; copies: + +
T2 sequence (O15392 whole entry, stated change not applied, chain 1 of 3, one chain of several, the tested form may be a part): as the sequence (O15392 whole entry, one chain of several) above
T2 sequence (Q9NQS7 other isoform, or with tags, fused parts or gaps RRKKRR to hexa-alanine | RRKKRR to hexa-alanine, chain 2 of 3, one chain of several): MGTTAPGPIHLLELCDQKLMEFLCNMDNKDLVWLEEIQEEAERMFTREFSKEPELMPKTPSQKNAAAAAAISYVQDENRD

[3] = molecular target: T3, MKLP2^557-668:CPI80 (survivin, INCENP^1-80, borealin^10-109) (human, UniProt O95235 557-668; O15392 1-142; Q9NQS7 1-80; Q53HL2 10-109); test: as above; conditions: both partners purified
T3 construct: survivin, human; INCENP, human, residues 1-80; borealin, human, residues 10-109; also called MKLP2:CPI80; not shown: His6, N-terminal, cleaved; GST, N-terminal, cleaved; copies: 2 + 2 + 2 + 2

[4] = molecular target: T4, CPI80 (survivin, INCENP^1-80, borealin^10-109) (human, UniProt O15392 1-142; Q9NQS7 1-80; Q53HL2 10-109); test: as above; conditions: both partners purified
T4 construct: survivin, human; INCENP, human, residues 1-80; borealin, human, residues 10-109; 1:1:1 trimer by SEC-MALS; also called WT CPI80; source: E. coli BL21-CodonPlus (DE3)-RIL, purified (Glutathione Sepharose, SEC); not shown: His6, N-terminal, cleaved; GST, N-terminal, cleaved; copies: 1 + 1 + 1
T4 sequence (O15392 whole entry, chain 1 of 3, one chain of several, the tested form may be a part): as the sequence (O15392 whole entry, one chain of several) above

[5] = molecular target: CPI58 as used in ITC, SEC and ATPase assays (survivin, borealin, INCENP 1–58) (human, UniProt O15392 1-142; Q9NQS7 1-58; Q53HL2 1-280, Structural Zn2+ on survivin C57/C60/H77/C84. Survivin is taken from the authors' construct entity (entity number = survivin number + 2; leading GP tag scar left out). Borealin 10-109 is inferred from); test: as above; conditions: both partners purified
CPI58 as used in ITC, SEC and ATPase assays (survivin, borealin, INCENP 1–58) (human, UniProt O15392 1-142; Q9NQS7 1-58; Q53HL2 1-280, Structural Zn2+ on survivin C57/C60/H77/C84. Survivin is taken from the authors' construct entity (entity number = survivin number + 2; leading GP tag scar left out). Borealin 10-109 is inferred from), sequence (A2SUH6 whole entry, chain 1 of 3, one chain of several): as the sequence (O15392 whole entry, one chain of several) above

[6] = molecular target: the molecule itself; test: SEC; 1 mg lysate of nocodazole-arrested HeLa cells on Superose 6 10/300 at 4°C; fractions Western blotted for MKLP2 and GFP; size from calibration standards
[7] = molecular target: CPI58 as used in ITC, SEC and ATPase assays (survivin, borealin, INCENP 1–58) (human, UniProt O15392 1-142; Q9NQS7 1-58; Q53HL2 1-280); test: ITC; 400 µM peptide injected into 50 µM protein; 100 mM NaCl, 20 mM Tris-HCl pH 7.2, 1 mM DTT; 25°C; 1:1 binding model; conditions: both partners purified
borealin^10-109 = molecular target: B1; test: SEC-MALS; samples at 1 mg/ml on Superose 6 10/300 GL, room temperature; 100 mM NaCl, 20 mM Tris-HCl pH 8.0, 1 mM DTT, 10% glycerol; conditions: both partners purified
[8] = molecular target: T5, CPI80^(Survivin E65A-H80A) (human, UniProt O15392 1-142; Q9NQS7 1-80; Q53HL2 10-109, E65A | H80A); test: SEC; CPC variants and MKLP2^557-668 mixed 1:1, 30 min on ice in 100 mM NaCl, 20 mM Tris-HCl pH 8.0, 1 mM DTT, 10% glycerol; analytical Superdex 200 increase 10/300 at 4°C; fractions on stained gels; conditions: both partners purified
T5 construct: survivin, human, E65A H80A; INCENP, human, residues 1-80; borealin, human, residues 10-109 as in CPI80; not restated for this mutant; also called CPI80^E65A-H80A; survivin^E65A-H80A CPI80; source: E. coli BL21-CodonPlus (DE3)-RIL, purified (Glutathione Sepharose, SEC); not shown: His6, N-terminal, cleaved; GST, N-terminal, cleaved; copies: + +
T5 sequence (O15392 whole entry E65A/H80A, the tested form may be a part, one chain of several): as the sequence (O15392 whole entry, one chain of several) above, with E65A, H80A counted along it

[9] = molecular target: the molecule itself; test: SEC-MALS; samples at 1 mg/ml on Superose 6 10/300 GL, room temperature; 100 mM NaCl, 20 mM Tris-HCl pH 8.0, 1 mM DTT, 10% glycerol

Binder	stoichiometry N [1]	Kd [2] [nM]	Kd [3] [nM]	Kd [4] [nM]	further results
B1	1	–	–	–	–
ARTKQTARKSTG (histone H3 residues 1-12; also called H3T3 nonphosphopeptide; nonphosphorylated H3 peptide; source: synthetic peptide (Peptide Protein Research Ltd)) [H3 (1–12) peptide]	–	3300 ± 500	2800 ± 300	4600	Kd [5]: 5600 nM
GFP-MKLP2 Δ636-652 (natural protein, human, UniProt O95235 1-890, looked up, source: HeLa, transfected, in lysate; not shown: EGFP, N-terminal, kept) MSQGILSPPAGLLSDDDVVVSPMFESTAADLGSVVRKNLLSDCSVVSTSLEDKQQVPSEDSMEKVKVYLRVRPLLPSELERQEDQGCVRIENVETLVLQAPKDSFALKSNERGIGQATHRFTFSQIFGPEVGQASFFNLTVKEMVKDVLKGQNWLIYTYGVTNSGKTHTIQGTIKDGGILPRSLALIFNSLQGQLHPTPDLKPLLSNEVIWLDSKQIRQEEMKKLSLLNGGLQEEELSTSLKRSVYIESRIGTSTSFDSGIAGLSSISQCTSSSQLDETSHRWAQPDTAPLPVPANIRFSIWISFFEIYNELLYDLLEPPSQQRKRQTLRLCEDQNGNPYVKDLNWIHVQDAEEAWKLLKVGRKNQSFASTHLNQNSSRSHSIFSIRILHLQGEGDIVPKISELSLCDLAGSERCKDQKSGERLKEAGNINTSLHTLGRCIAALRQNQQNRSKQNLVPFRDSKLTRVFQGFFTGRGRSCMIVNVNPCASTYDETLHVAKFSAIASQLVHAPPMQLGFPSLHSFIKEHSLQVSPSLEKGAKADTGLDDDIENEADISMYGKEELLQVVEAMKTLLLKERQEKLQLEMHLRDEICNEMVEQMQQREQWCSEHLDTQKELLEEMYEEKLNILKESLTSALLQEARQQSVAHQQSGSELALRRSQRLAASASTQQLQEVKAKLQQCKAELNSTTEELHKYQKMLEPPPSAKPFTIDVDKKLEEGQKNIRLLRTELQKLGESLQSAERACCHSTGAGKLRQALTTCDDILIKQDQTLAELQNNMVLVKLDLRKKAACIAEQYHTVLKLQGQVSAKKRLGTNQENQQPNQQPPGKKPFLRNLLPRTPTCQSSTDCSPYARILRSRRSPLLKSGPFGKKY	–	–	–	–	stoichiometry N [6]: 2
AR[pT]KQTARKSTG (also called pH3T3; H3pT3 phosphopeptide; source: synthetic peptide (Peptide Protein Research Ltd)) [H3pT3 (1–12) phosphopeptide]	–	600 ± 300	< 1000	1100	Kd [7]: 800 nM
INCENP^1-80 (recombinant) (domain or fragment, human, UniProt Q9NQS7 1-80, looked up, INCENP, human, residues 1-80; Subunit in the rows of two; also called I^80; source: E. coli BL21-CodonPlus (DE3)-RIL, purified within the complex; not shown: His6, N-terminal, cleaved; GST, N-terminal, cleaved) MGTTAPGPIHLLELCDQKLMEFLCNMDNKDLVWLEEIQEEAERMFTREFSKEPELMPKTPSQKNRRKKRRISYVQDENRD	1	–	–	–	stoichiometry N (borealin^10-109): 1
MKLP2^557-668 (domain or fragment, human, UniProt O95235 557-668, looked up, source: E. coli BL21-CodonPlus (DE3)-RIL, purified (Glutathione Sepharose, SEC); not shown: His6, N-terminal, cleaved; GST, N-terminal, cleaved) MYGKEELLQVVEAMKTLLLKERQEKLQLEMHLRDEICNEMVEQMQQREQWCSEHLDTQKELLEEMYEEKLNILKESLTSFYQEEIQERDEKIEELEALLQEARQQSVAHQQS	–	–	–	–	binding result [8]: binds; stoichiometry N [9]: 2
